{"source": "paper PMC2115214", "key": {"[1]": {"target": "high-affinity receptor for bFGF on bovine capillary endothelial (BCE) cells (bovine (endogenous in BCE cells))", "assay": "radioligand binding"}, "[2]": {"target": "high-affinity receptor for bFGF on bovine capillary endothelial (BCE) cells (bovine (endogenous in BCE cells))", "assay": "radioligand binding", "remark": "listed apart in the source"}}, "note": "Like-named read-outs stand apart in the source and are kept apart here."}
{"substance": "125I-labeled basic fibroblast growth factor (125I-bFGF) (from UniProt P09038 1-288) (ligand)", "values": [{"measurement": "fmol bFGF bound to high affinity sites", "setting": "[1]", "result": 2.6, "unit": "fmol"}, {"measurement": "fmol bFGF bound to high affinity sites", "setting": "[2]", "result": 3.1, "unit": "fmol"}]}
